± gives the standard deviation of the averaged measurements.
Tested on: ATP
Test: switch fluorescence ratio, 500 uM ATP over buffer (Cy3 cluster intensity, sum of 5 cycles each) (fold (ratio)); higher = stronger signal-on switching upon ATP binding; sequences stand for … in TCGTCGGCAGCGTCAGATGTGTATAAGAGACAGTTTTTTTTTTTTTTTTTTTTTTTTT…TC
Conditions: aptamer strand: ATP DNA aptamer (quencher-CACCTGGGGGAGTATTGCGGAGGAAGG + anchor), 100 nM annealed; ATP concentration: 500 uM
Method in brief: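 Clusters carrying Cy3-labelled switching strands on a modified Illumina MiSeq flow-cell were annealed to 100 nM quencher-labelled ATP aptamer and imaged in selection buffer. They were imaged again after 15 min with 500 uM ATP at 22 °C, over five buffer/ATP cycles with NaOH stripping and re-annealing in between. For each cluster, the fluorescence ratio is the summed Cy3 intensity of the target cycles divided by that of the buffer cycles, averaged per switch-domain sequence. Clusters outside 100-1000 RFU were left out.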
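Note: ATP exposure 15 min at 22 °C before imaging.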

Row | Sequence | switch fluorescence ratio
1 | TAGGGTTTTC | 0.988 ± 0.045
2 | TAGGTAAAGT | 0.981 ± 0.03
3 | TAGGTAGGCA | 1 ± 0.028
4 | TAGGTAGGCT | 0.974 ± 0.025
5 | TAGGTAGGGG | 0.99 ± 0.036
6 | TAGGTAGTTT | 0.969 ± 0.032
7 | TAGGTCAGGG | 0.965 ± 0.027
8 | TAGGTCGATA | 1 ± 0.023
9 | TAGGTCGTTT | 0.982 ± 0.01
10 | TAGGTCTCAG | 1.029 ± 0.0085
11 | TAGGTCTGCG | 0.978 ± 0.014
12 | TAGGTGAAGG | 1 ± 0.0069
13 | TAGGTGACAA | 1 ± 0.015
14 | TAGGTGATTT | 1.03 ± 0.023
15 | TAGGTGGCGT | 1.006 ± 0.0028
16 | TAGGTGGCTC | 1.03 ± 0.069
17 | TAGGTGTTAT | 1.02 ± 0.037
18 | TAGGTTGTGC | 0.976 ± 0.037
19 | TAGGTTGTTG | 0.969 ± 0.011
20 | TAGGTTTAGT | 0.9841 ± 0.0094
21 | TAGGTTTTTT | 0.989 ± 0.035
22 | TAGTAAAGAT | 1 ± 0.017
23 | TAGTAAAGGT | 1.022 ± 0.0068
24 | TAGTAACTAC | 1.05 ± 0.011
25 | TAGTAATCGT | 1.01 ± 0.063
26 | TAGTAATTGA | 1 ± 0.02

Row | Sequence | switch fluorescence ratio
27 | TAGTACCGGT | 0.991 ± 0.029
28 | TAGTACGGGC | 1 ± 0.044
29 | TAGTACTCGT | 1.01 ± 0.011
30 | TAGTAGTCAA | 1.03 ± 0.011
31 | TAGTAGTTGC | 1.032 ± 0.0059
32 | TAGTAGTTTT | 1.01 ± 0.052
33 | TAGTATATTT | 0.954 ± 0.018
34 | TAGTCATTCA | 0.981 ± 0.026
35 | TAGTCCATCG | 0.998 ± 0.012
36 | TAGTCCTATG | 0.969 ± 0.021
37 | TAGTCGCGTC | 1.004 ± 0.0066
38 | TAGTCGGGGA | 1.03 ± 0.059
39 | TAGTCGGTGG | 0.9978 ± 0.0032
40 | TAGTCTGCGT | 1.04 ± 0.037
41 | TAGTCTGGGC | 0.986 ± 0.037
42 | TAGTGACTAG | 1.05 ± 0.021
43 | TAGTGAGTCC | 1.08 ± 0.1
44 | TAGTGCGGGA | 1.02 ± 0.073
45 | TAGTGGGGCC | 1.01 ± 0.019
46 | TAGTGGGGGG | 0.989 ± 0.026
47 | TAGTGGTTCG | 1.02 ± 0.023
48 | TAGTGTGGGG | 1.04 ± 0.034
49 | TAGTGTGTTT | 0.9823 ± 0.0095
50 | TAGTGTTGTG | 0.971 ± 0.055
51 | TAGTTAGGGT | 0.9959 ± 0.0093
52 | TAGTTAGTGA | 0.986 ± 0.034

Row | Sequence | switch fluorescence ratio
53 | TAGTTATGGT | 1.04 ± 0.019
54 | TAGTTATTAG | 1 ± 0.04
55 | TAGTTATTGA | 1.01 ± 0.038
56 | TAGTTCTTAA | 0.984 ± 0.064
57 | TAGTTGGGCG | 0.984 ± 0.098
58 | TAGTTGTAGG | 1.04 ± 0.051
59 | TAGTTGTCCC | 1.02 ± 0.045
60 | TAGTTGTTTG | 0.9989 ± 0.0085
61 | TAGTTTAGTT | 1 ± 0.015
62 | TAGTTTCTAC | 0.992 ± 0.033
63 | TAGTTTGAAC | 1.01 ± 0.05
64 | TAGTTTGGGC | 0.983 ± 0.019
65 | TAGTTTTGGG | 0.9807 ± 0.0026
66 | TAGTTTTTAT | 1.02 ± 0.014
67 | TATAAACAGG | 0.998 ± 0.023
68 | TATAAACGGG | 1 ± 0.024
69 | TATAAACTTT | 1.01 ± 0.054
70 | TATAAATTAG | 0.972 ± 0.026
71 | TATAACCAGG | 1.33 ± 0.086
72 | TATAAGAGAG | 1 ± 0.024
73 | TATAAGTATA | 1.02 ± 0.011
74 | TATAAGTGAG | 1.02 ± 0.037
75 | TATAATCATT | 0.985 ± 0.028
76 | TATAATCGAG | 1 ± 0.014
77 | TATAATGCTC | 1.01 ± 0.014
78 | TATAATGGTG | 0.976 ± 0.021

Row | Sequence | switch fluorescence ratio
79 | TATACAATGG | 1.01 ± 0.024
80 | TATACAGGGG | 1.2 ± 0.024
81 | TATACATGAG | 1.03 ± 0.021
82 | TATACGACTC | 1.09 ± 0.068
83 | TATACGTGGC | 0.939 ± 0.03
84 | TATACTATGG | 1.01 ± 0.038
85 | TATACTGGGA | 0.995 ± 0.012
86 | TATACTGGGG | 1.03 ± 0.059
87 | TATACTTTTT | 1.01 ± 0.021
88 | TATAGAAAGT | 0.9981 ± 0.0066
89 | TATAGAGGGA | 0.988 ± 0.02
90 | TATAGCCTCG | 0.976 ± 0.017
91 | TATAGGATT | 0.986 ± 0.015
92 | TATAGGCCGG | 0.991 ± 0.02
93 | TATAGGGAAT | 0.98384 ± 3.5e-05
94 | TATAGGGAGT | 1.01 ± 0.014
95 | TATAGGGCAT | 1.01 ± 0.032
96 | TATAGGGGGA | 1.04 ± 0.024
97 | TATAGGGGTC | 0.968 ± 0.014
98 | TATAGGGTTG | 0.999 ± 0.033
99 | TATAGTAACT | 1.03 ± 0.041
100 | TATAGTCATT | 1.02 ± 0.022
101 | TATAGTCGGG | 0.98 ± 0.025
102 | TATAGTGAGG | 1.0603 ± 0.001
103 | TATAGTGGGG | 1.043 ± 0.0078
104 | TATAGTGGGT | 1.01 ± 0.067

Row | Sequence | switch fluorescence ratio
105 | TATAGTTTTG | 0.996 ± 0.021
106 | TATATAACGG | 1.036 ± 0.01
107 | TATATAGTCT | 1.024 ± 0.0086
108 | TATATATGAC | 1.01 ± 0.022
109 | TATATATGTA | 1.01 ± 0.05
110 | TATATATTTG | 1.03 ± 0.029
111 | TATATATTTT | 1.01 ± 0.029
112 | TATATGCTGT | 0.98 ± 0.011
113 | TATATGGCGA | 0.995 ± 0.031
114 | TATATTACGA | 1.03 ± 0.013
115 | TATATTATGC | 1.02 ± 0.011
116 | TATATTCTTT | 1 ± 0.023
117 | TATATTGCAT | 1.01 ± 0.015
118 | TATATTTACC | 1.04 ± 0.044
119 | TATATTTAGT | 0.973 ± 0.028
120 | TATCAAAAGA | 1.03 ± 0.016
121 | TATCAAATTA | 1.03 ± 0.011
122 | TATCAATTCG | 0.997 ± 0.036
123 | TATCACGCAT | 1.36 ± 0.018
124 | TATCAGACAG | 1.011 ± 0.0095
125 | TATCAGTAGG | 0.981 ± 0.021
126 | TATCCACATA | 1.1 ± 0.013
127 | TATCCAGGGG | 2.063 ± 0.0021
128 | TATCCAGTGG | 1.01 ± 0.054
129 | TATCCCGGCG | 0.9977 ± 0.0082
130 | TATCCGAGGT | 1.16 ± 0.26

Row | Sequence | switch fluorescence ratio
131 | TATCCGGAAT | 1.79 ± 0.76
132 | TATCGCAATG | 3.63 ± 0.32
133 | TATCGGCGAG | 1.02 ± 0.046
134 | TATCGGGAGC | 0.986 ± 0.026
135 | TATCGGGATA | 0.994 ± 0.021
136 | TATCGTAGGC | 0.9996 ± 0.00057
137 | TATCGTCGGG | 1.008 ± 0.0064
138 | TATCTAAAGT | 1.01 ± 0.029
139 | TATCTAAATA | 1.007 ± 0.007
140 | TATCTAGGGC | 1.025 ± 0.0042
141 | TATCTAGGGG | 0.981 ± 0.035
142 | TATCTAGGTT | 1 ± 0.02
143 | TATCTATCCG | 0.985 ± 0.039
144 | TATCTATCTT | 0.994 ± 0.0066
145 | TATCTCAACG | 1.045 ± 0.006
146 | TATCTGGGGG | 1.01 ± 0.055
147 | TATCTGTATA | 1.11 ± 0.17
148 | TATCTTAAAT | 0.997 ± 0.028
149 | TATCTTGCAT | 0.97 ± 0.048
150 | TATCTTTGGG | 0.981 ± 0.026
151 | TATGAAAGTG | 0.983 ± 0.035
152 | TATGAAATAG | 0.99 ± 0.034
153 | TATGAAGGGG | 1.22 ± 0.34

— the supplement of paper PMC10126150
